{"source": "patent US20240034813A1", "about": "(Janssen / Centocor, published 2024)", "binders": {"B1": {"name": "amivantamab (bispecific antibody, human IgG1, kappa)", "heavy 1": "not shown", "light 1": "not shown", "heavy 2": "not shown", "light 2": "DIQMTQSPSSVSASVGDRVTITCRASQGISNWLAWFQHKPGKAPKLLIYAASSLLSGVPSRFSGSGSGTDFTLTISSLQPEDFATYYCQQANSFPITFGQGTRLEIKRTVAAPSVFIFPPSDEQLKSGTASVVCLLNNFYPREAKVQWKVDNALQSGNSQESVTEQDSKDSTYSLSSTLTLSKADYEKHKVYACEVTHQGLSSPVTKSFNRGEC", "notes": "The samples tested were high concentration (160 mg/mL) formulations, fresh or stored or stressed; also called JNJ-61186372; bispecific EGFR-cMet antibody"}}, "key": {"[1]": {"biological_target": "T1, recombinant human EGFR/ErbB1/HER1 with C-terminal His tag, Cy5-labeled (human, UniProt P00533 25-645, Cy5 label (reacted with Cy5 Mono NHS Ester; sites not stated))", "T1 construct": "Commercial protein; also called Cy5-EGFR; Cy5-labeled EGFR antigen; not shown: C-terminal His tag", "experiment": "competitive TR-FRET (Eu-amivantamab/Cy5-EGFR), EC50 ratio vs Reference Material; Ex. 11 drug product, 0 months, 25 C table", "text": "(§1) In this procedure, varying concentrations of unlabeled bispecific EGFR-cMet antibody sample compete with donor fluorophore (Europium (Eu) chelate) labeled bispecific EGFR-cMet antibody for binding to an acceptor fluorophore (Cy5)-labeled EGFR antigen. Excitation of the donor fluorophore results in a transfer of energy to the bound acceptor fluorophore (FRET process). The resultant FRET is detected by emission of light at 665 nm using a microplate reader capable of measuring time-resolved fluorescence. Sample dose response curves are compared to the RM.\n(§2) EGFR Binding Materials and Methods. Certified commercial EGFR, a recombinant human EGFR/ErbB1/HER1 with C-terminal His tag is reacted with certified commercial Cy5 Mono NHS Ester to produce Cy5-labeled EGFR. Validated bispecific EGFR-cMet antibody is reacted with certified commercial Europium (Eu) chelate to produce Eu-labeled bispecific EGFR-cMet antibody. […] Fluorescence is then measured by spectrophotometry at 665 nm, plotted against antibody concentration and analyzed by a four-parameter logistic model. The antibody concentration required to obtain half of the maximum fluorescence response (EC50) is determined for RM, assay control and samples. The potencies of assay control and samples are calculated based on the ratio of the sample (or control) and RM EC50 values and reported as a percentage activity relative to the RM."}, "[2]": {"biological_target": "T2, recombinant cMet/HGFR with c-terminal His-tag, Cy5-labeled (UniProt P08581 25-932, limits assumed, Cy5 label (reacted with Cy5 Mono NHS Ester; sites not stated))", "T2 construct": "Commercial protein; also called Cy5-c-MET; Cy5-labeled c-MET antigen; not shown: C-terminal His-tag", "experiment": "competitive TR-FRET (Eu-amivantamab/Cy5-c-MET), EC50 ratio vs Reference Material; Ex. 12 drug product with rHuPH20, 3 months at 25 C", "text": "as §1, with “(Cy5)-labeled c-MET” for “(Cy5)-labeled EGFR”, “the Reference Material (RM).” for “the RM.”\nas §2, with “c-MET Binding” for “EGFR Binding”, “commercial cMet,” for “commercial EGFR,”, “recombinant cMet/HGFR” for “recombinant human EGFR/ErbB1/HER1”, “with c-terminal His-tag” for “with C-terminal His tag”, “Cy5-labeled c-MET.” for “Cy5-labeled EGFR.”, “produce Eu labeled” for “produce Eu-labeled”"}, "[3]": {"biological_target": "T1, recombinant human EGFR/ErbB1/HER1 with …", "experiment": "competitive TR-FRET (Eu-amivantamab/Cy5-EGFR), EC50 ratio vs Reference Material; Ex. 3 acetate formulation, 6 months at 25 C then 5 freeze/thaw cycles", "text": "as §1, §2"}, "[4]": {"biological_target": "T2, recombinant cMet/HGFR with c-terminal …", "experiment": "competitive TR-FRET (Eu-amivantamab/Cy5-c-MET), EC50 ratio vs Reference Material; Ex. 2 Formulation 1 (10 mM histidine), T0, 40 C table", "text": "as §1, with “(Cy5)-labeled c-MET” for “(Cy5)-labeled EGFR”, “the Reference Material (RM).” for “the RM.”\nas §2, with “c-MET Binding” for “EGFR Binding”, “commercial cMet,” for “commercial EGFR,”, “recombinant cMet/HGFR” for “recombinant human EGFR/ErbB1/HER1”, “with c-terminal His-tag” for “with C-terminal His tag”, “Cy5-labeled c-MET.” for “Cy5-labeled EGFR.”, “produce Eu labeled” for “produce Eu-labeled”"}, "[5]": {"biological_target": "T2, recombinant cMet/HGFR with c-terminal …", "experiment": "competitive TR-FRET (Eu-amivantamab/Cy5-c-MET), EC50 ratio vs Reference Material; Ex. 2 Formulation 1 (10 mM histidine), T0, 25 C table", "text": "as §1, with “(Cy5)-labeled c-MET” for “(Cy5)-labeled EGFR”, “the Reference Material (RM).” for “the RM.”\nas §2, with “c-MET Binding” for “EGFR Binding”, “commercial cMet,” for “commercial EGFR,”, “recombinant cMet/HGFR” for “recombinant human EGFR/ErbB1/HER1”, “with c-terminal His-tag” for “with C-terminal His tag”, “Cy5-labeled c-MET.” for “Cy5-labeled EGFR.”, “produce Eu labeled” for “produce Eu-labeled”"}, "[6]": {"biological_target": "T2, recombinant cMet/HGFR with c-terminal …", "experiment": "competitive TR-FRET (Eu-amivantamab/Cy5-c-MET), EC50 ratio vs Reference Material; Ex. 11 drug product, 6 months at 25 C", "text": "as §1, with “(Cy5)-labeled c-MET” for “(Cy5)-labeled EGFR”, “the Reference Material (RM).” for “the RM.”\nas §2, with “c-MET Binding” for “EGFR Binding”, “commercial cMet,” for “commercial EGFR,”, “recombinant cMet/HGFR” for “recombinant human EGFR/ErbB1/HER1”, “with c-terminal His-tag” for “with C-terminal His tag”, “Cy5-labeled c-MET.” for “Cy5-labeled EGFR.”, “produce Eu labeled” for “produce Eu-labeled”"}, "[7]": {"biological_target": "T1, recombinant human EGFR/ErbB1/HER1 with …", "experiment": "competitive TR-FRET (Eu-amivantamab/Cy5-EGFR), EC50 ratio vs Reference Material; Ex. 3 acetate formulation, 6 months at 25 C then shaking up to 72 h", "text": "as §1, §2"}, "[8]": {"biological_target": "T2, recombinant cMet/HGFR with c-terminal …", "experiment": "competitive TR-FRET (Eu-amivantamab/Cy5-c-MET), EC50 ratio vs Reference Material; Ex. 12 drug product with rHuPH20, 9 months at 5 C", "text": "as §1, with “(Cy5)-labeled c-MET” for “(Cy5)-labeled EGFR”, “the Reference Material (RM).” for “the RM.”\nas §2, with “c-MET Binding” for “EGFR Binding”, “commercial cMet,” for “commercial EGFR,”, “recombinant cMet/HGFR” for “recombinant human EGFR/ErbB1/HER1”, “with c-terminal His-tag” for “with C-terminal His tag”, “Cy5-labeled c-MET.” for “Cy5-labeled EGFR.”, “produce Eu labeled” for “produce Eu-labeled”"}}, "data": [{"binder": "B1", "values": [{"measurement": "EGFR Binding activity relative to Reference Material (%)", "setting": "[1]", "value": 89, "unit": "%"}, {"measurement": "cMET Binding activity relative to Reference Material (%)", "setting": "[2]", "value": 81, "unit": "%"}, {"measurement": "EGFR Binding % activity relative to RM", "setting": "[3]", "value": 95, "unit": "%"}, {"measurement": "cMET Binding % activity relative to RM", "setting": "[4]", "value": 87, "unit": "%"}, {"measurement": "cMET Binding % activity relative to RM", "setting": "[5]", "value": 87, "unit": "%"}, {"measurement": "cMET Binding activity relative to Reference Material (%)", "setting": "[6]", "value": 113, "unit": "%"}, {"measurement": "EGFR Binding % activity relative to RM", "setting": "[7]", "value": 86, "unit": "%"}, {"measurement": "cMET Binding activity relative to Reference Material (%)", "setting": "[8]", "value": 106, "unit": "%"}]}]}
